Laboratory results published in patent EP2481750A1 (Mayo Foundation for Medical Education and Research, dated 2012).

Target: T1, human B7-DC (human, UniProt Q9BQ51 20-273)
T1 construct: whole, on cells; also called hB7.DC; human B7-DC orthologue
T1 sequence (looked up): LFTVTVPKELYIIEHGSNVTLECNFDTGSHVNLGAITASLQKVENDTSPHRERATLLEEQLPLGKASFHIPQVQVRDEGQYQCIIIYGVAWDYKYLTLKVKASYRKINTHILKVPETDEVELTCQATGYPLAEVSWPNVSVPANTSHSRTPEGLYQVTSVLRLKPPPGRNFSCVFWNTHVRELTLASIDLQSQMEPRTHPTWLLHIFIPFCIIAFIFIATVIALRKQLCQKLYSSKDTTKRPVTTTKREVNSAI
Test: flow cytometry on Ltk cells transiently transfected with human B7-DC

B1: sHIgM12 (pentameric human monoclonal IgM/kappa antibody, B7-DC cross-linking antibody) (antibody)
heavy: QVQLQESGPGLLKPSETLSLTCTVSGGSVSLYYWSWIRQSPGKEPEWIGYIYSSGSTDYNPSLRSRVTISLDTSNNRFSLNLRSVTAADTAVYWCARSASIRGWFDPWGQGTLVTVSSGSASAPTLFPLVSCENSPSDTSSVAVGCLAQDFLPDSITFSWKYKNNSDISSTRGFPSVLRGGKYAATSQVLLPSKDVMQGTDEHVVCKVQHPNGNKEKNVPLPVIAELPPKVSVFVPPRDGFFGNPRKSKLICQATGFSPRQIQVSWLREGKQVGSGVTTDQVQAEAKESGPTTYKVTSTLTIKESDWLSQSMFTCRVDHRGLTFQQNASSMCVPDQDTAIRVFAIPPSFASIFLTKSTKLTCLVTDLTTYDSVTISWTRQNGEAVKTHTNISESHPNATFSAVGEASICEDDWNSGERFTCTVTHTDLPSPLKQTISRPKGVALHRPDVYLLPPAREQLNLRESATITCLVTGFSPADVFVQWMQRGQPLSPEKYVTSAPMPEPQAPGRYFAHSILTVSEEEWNTGETYTCVVAHEALPNRVTERTVDKSTGKPTLYNVSLVMSDTAGTCY
light: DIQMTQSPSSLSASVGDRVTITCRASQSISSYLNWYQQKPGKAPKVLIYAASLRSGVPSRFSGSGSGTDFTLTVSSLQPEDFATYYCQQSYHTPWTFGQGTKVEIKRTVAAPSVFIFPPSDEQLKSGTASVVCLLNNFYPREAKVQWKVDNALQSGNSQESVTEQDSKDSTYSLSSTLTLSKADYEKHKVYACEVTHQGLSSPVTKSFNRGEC
notes: also called intact sHIgM12; pentameric sHIgM12
  binding result: binds
